The target of experiment [1] is BG505 NFL (native flexibly linked) HIV-1 envelope glycoprotein trimer from 293F cells (HIV-1). The experiment in a line: SEC; Superdex 200 (S200) after lectin-affinity column; UV absorbance at 280 nm.
Experiment [2] has as its target BG505 NFL (native flexibly linked) HIV-1 envelope glycoprotein trimer from CHO-M cells (HIV-1). The experiment is described as follows: negative-stain electron microscopy; peak SEC fraction from pool Z; 2% uranyl formate, 2D class averages.
For experiment [3] the target is unchanged. The experiment is described as follows: SEC; Superdex 200 (S200) after lectin-affinity column; UV absorbance at 280 nm. A general note: Size exclusion chromatography separates by hydrodynamic size, large species first.
Experiment [4] has the same target. The experiment in a line: native gel or EMSA; blue-native PAGE of SEC fractions (F4-F9) of lectin-purified pool Z supernatant. Background: Mobility shift assays separate free from complexed probe on a gel.

By stoichiometry N is commonly meant a count of units in the complex or per binding partner.

With “BG505 NFL (native flexibly linked) HIV-1 envelope glycoprotein trimer from 293F cells”, the stoichiometry N in experiment [1] amounted to 3.
“BG505 NFL (native flexibly linked) HIV-1 envelope glycoprotein trimer from CHO-M cells”: the stoichiometry N in experiment [2], in experiment [3] and in experiment [4] was 3 in each case.
